Patent US20160201097A1, “Materials and Methods of Producing 7-Carbon Monomers” (INVISTA North America S.á.r.l., priority 2014, published 2016)

Tests used:
Assay type in all cases: biochemical
[1] = carboxylate reductase activity: pimelate semialdehyde to heptanedial (NADPH consumption, A340); settings: purified enzyme enhanced by sfp gene product, 2 mM pimelate semialdehyde, pH 7.5, room temperature, 20 min; against the empty vector control (FIG. 11)
Method: The N-terminal His-tagged carboxylate reductase of SEQ ID NO: 6 (see Example 3 and FIG. 6) was assayed using pimelate semialdehyde as substrate. The enzyme activity assay was performed in triplicate in a buffer composed of a final concentration of 50 mM HEPES buffer (pH=7.5), 2 mM pimelate semialdehyde, 10 mM MgCl2, 1 mM ATP and 1 mM NADPH. The enzyme activity assay reaction was initiated by adding purified carboxylate reductase and phosphopantetheine transferase or the empty vector control to the assay buffer containing the pimelate semialdehyde and then incubated at room temperature for 20 min. The consumption of NADPH was monitored by absorbance at 340 nm.

[2] = carboxylate reductase activity: N7-acetyl-7-aminoheptanoate to N7-acetyl-7-aminoheptanal (NADPH consumption, A340); settings: purified enzyme enhanced by sfp gene product, 2 mM N7-acetyl-7-aminoheptanoate, pH 7.5, room temperature, 20 min; against the empty vector control (FIG. 10)
Method: The activity of each of the N-terminal His-tagged carboxylate reductases of SEQ ID NOs: 3, 5, and 6 (see Examples 2 and 3, and FIG. 6) for converting N7-acetyl-7-aminoheptanoate to N7-acetyl-7-aminoheptanal was assayed in triplicate in a buffer composed of a final concentration of 50 mM HEPES buffer (pH=7.5), 2 mM N7-acetyl-7-aminoheptanoate, 10 mM MgCl2, 1 mM ATP, and 1 mM NADPH. The assays were initiated by adding purified carboxylate reductase and phosphopantetheine transferase or the empty vector control to the assay buffer containing the N7-acetyl-7-aminoheptanoate then incubated at room temperature for 20 min. The consumption of NADPH was monitored by absorbance at 340 nm.

[3] = carboxylate reductase activity: pimelate to pimelate semialdehyde (NADPH consumption, A340); settings: purified enzyme enhanced by sfp gene product, 2 mM pimelate, pH 7.5, room temperature, 20 min; against the empty vector control (FIG. 8)
Method: A nucleotide sequence encoding a HIS-tag was added to the nucleic acid sequences from Segniliparus rugosus and Segniliparus rotundus that encode the carboxylate reductases of SEQ ID NOs: 4 (EFV11917.1) and 6 (ADG98140.1), respectively (see FIG. 6), such that N-terminal HIS tagged carboxylate reductases could be produced. Each of the modified genes was cloned into a pET Duet expression vector along with a sfp gene encoding a HIS-tagged phosphopantetheine transferase from Bacillus subtilis, both under the T7 promoter. Each expression vector was transformed into a BL21[DE3] E. coli host and the resulting recombinant E. coli strains were cultivated at 37° C. in a 250 mL shake flask culture containing 50 mL LB media and antibiotic selection pressure, with shaking at 230 rpm. Each culture was induced overnight at 37° C. using an auto-induction media.
The pellet from each induced shake flask culture was harvested via centrifugation. Each pellet was resuspended and lysed via sonication, and the cell debris was separated from the supernatant via centrifugation. […]
Enzyme activity assays (i.e., from pimelate to pimelate semialdehyde) were performed in triplicate in a buffer composed of a final concentration of 50 mM HEPES buffer (pH=7.5), 2 mM pimelate, 10 mM MgCl2, 1 mM ATP and 1 mM NADPH. […] The consumption of NADPH was monitored by absorbance at 340 nm. […]

B1: SEQ ID NO: 6: Segniliparus rotundus carboxylate reductase, N-terminal HIS tagged (protein, listed as Segniliparus rotundus)
chain: MTQSHTQGPQASAAHSRLARRAAELLATDPQAAATLPDPEVVRQATRPGLRLAERVDAILSGYADRPALGQRSFQTVKDPITGRSSVELLPTFDTITYRELRERATAIASDLAHHPQAPAKPGDFLASIGFISVDYVAIDIAGVFAGLTAVPLQTGATLATLTAITAETAPTLFAASIEHLPTAVDAVLATPSVRRLLVFDYRAGSDEDREAVEAAKRKIADAGSSVLVDVLDEVIARGKSAPKAPLPPATDAGDDSLSLLIYTSGSTGTPKGAMYPERNVAHFWGGVWAAAFDEDAAPPVPAINITFLPLSHVASRLSLMPTLARGGLMHFVAKSDLSTLFEDLKLARPTNLFLVPRVVEMLYQHYQSELDRRGVQDGTREAEAVKDDLRTGLLGGRILTAGFGSAPLSAELAGFIESLLQIHLVDGYGSTEAGPVWRDGYLVKPPVTDYKLIDVPELGYFSTDSPHPRGELAIKTQTILPGYYKRPETTAEVFDEDGFYLTGDVVAQIGPEQFAYVDRRKNVLKLSQGEFVTLAKLEAAYSSSPLVRQLFVYGSSERSYLLAVIVPTPDALKKFGVGEAAKAALGESLQKIARDEGLQSYEVPRDFIIETDPFTVENGLLSDARKSLRPKLKEHYGERLEAMYKELADGQANELRDIRRGVQQRPTLETVRRAAAAMLGASAAEIKPDAHFTDLGGDSLSALTFSNFLHDLFEVDVPVGVIVSAANTLGSVAEHIDAQLAGGRARPTFATVHGKGSTTIKASDLTLDKFIDEQTLEAAKHLPKPADPPRTVLLTGANGWLGRFLALEWLERLAPAGGKLITIVRGKDAAQAKARLDAAYESGDPKLAGHYQDLAATTLEVLAGDFSEPRLGLDEATWNRLADEVDFISHPGALVNHVLPYNQLFGPNVAGVAEIIKLAITTRIKPVTYLSTVAVAAGVEPSALDEDGDIRTVSAERSVDEGYANGYGNSKWGGEVLLREAHDRTGLPVRVFRSDMILAHQKYTGQVNATDQFTRLVQSLLATGLAPKSFYELDAQGNRQRAHYDGIPVDFTAESITTLGGDGLEGYRSYNVFNPHRDGVGLDEFVDWLIEAGHPITRIDDYDQWLSRFETSLRGLPESKRQASVLPLLHAFARPGPAVDGSPFRNTVFRTDVQKAKIGAEHDIPHLGKALVLKYADDIKQLGLL
modifications: N-terminal His tag
notes: Segniliparus rotundus carboxylate reductase, N-terminal HIS tagged
acceptance of pimelate semialdehyde as substrate, forming heptanedial (NADPH consumption) [1]: accepted pimelate semialdehyde as substrate
acceptance of N7-acetyl-7-aminoheptanoate as substrate (NADPH consumption) [2]: accepted N7-acetyl-7-aminoheptanoate as substrate
acceptance of pimelate as substrate (NADPH consumption) [3]: accepted pimelate as substrate
